The values below come from paper PMC12852372, “Phosphorylation-driven conformational switching of the ArnA–ArnB complex involved in archaeal motility regulation” (Frontiers in Microbiology, 2025).

The assay concerns the target T1, phosphorylated ArnB (ArnB~P), phosphorylated by the kinase ArnC (Sulfolobus acidocaldarius, UniProt Q4J9H3 2-380, phosphothreonine at T353, T363 and T375 (almost complete within the first 5 min with ArnC); phosphothreonine at T322 and T335 only after 15 min).
T1 construct: ArnB of Sulfolobus acidocaldarius, Saci_1211; also called tagged ArnB; source: E. coli BL21(DE3) Rosetta; phosphorylated by ArnC in the mixed lysate (ATP, MnCl2, 55 °C, 5-60 min); in lysate for the pull-downs; purified (Ni-NTA, SEC) for HDX-MS; not shown: His6, C-terminal, kept
T1 sequence: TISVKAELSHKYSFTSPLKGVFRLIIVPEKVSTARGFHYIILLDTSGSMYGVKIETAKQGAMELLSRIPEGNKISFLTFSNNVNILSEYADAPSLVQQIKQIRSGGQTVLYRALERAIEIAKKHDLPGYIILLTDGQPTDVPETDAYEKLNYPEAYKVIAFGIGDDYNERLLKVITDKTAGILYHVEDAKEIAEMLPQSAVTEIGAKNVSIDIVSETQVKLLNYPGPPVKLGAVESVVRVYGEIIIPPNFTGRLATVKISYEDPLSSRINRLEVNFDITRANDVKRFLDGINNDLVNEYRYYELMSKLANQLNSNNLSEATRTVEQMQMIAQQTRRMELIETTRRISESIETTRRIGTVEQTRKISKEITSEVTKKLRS
Description: HDX-MS; ArnA, ArnB, ArnB~P and ArnA/ArnB~P (isolated by Ni-NTA via the His6 tag of ArnB, then SEC); 50 μM stocks in 20 mM Tris-Cl pH 8.0, 150 mM NaCl; 25 °C; 10-10,000 s. To be noted: both partners purified.

B1: ArnA (Saci_1210) (natural protein, Sulfolobus acidocaldarius)
chain: TWKCNLCGYENDDDALFCIKCGAQKSSEAQQLPQQQPSEPQAQGVVTQQQVVTNPPVQAQVATPQQPAQQPVLPQPEPAQPQPVSSTPAPQQASQPTNRYYIYFIQTPNENLVNKKVLLNFDLFPSVSMGRSPENIVIVPDSEVSRKHAVIYLDNSELYIEDLNSTNGTYVYDGKQFTPIKGKQKIEPNSIIKLGNQTIVRILKE
notes: ArnA of Sulfolobus acidocaldarius, Saci_1210; N-terminal zinc-finger (ZnF) domain, disordered linker (S28-N99) and C-terminal FHA domain; In the crystal (PDB 8S05) only the ZnF domain (P16-K42) is defined by density; also called StrepII-tagged ArnA; source: E. coli BL21(DE3) Rosetta; purified (heat treatment, Ni-NTA, SEC) for crystals, SAXS and HDX-MS; co-expressed with His6-ArnB, in lysate, for …
For B1, the binding result was “binds”.
